# Data reported in US20020137904A1.
# B1: CS 197 synthetic peptide SEQUENCE ID NO 19 (peptide)
# peptide: LPGTKAWMETEDTLGRVLSPEPDHDSLYHPPPEED
# Target: rabbit anti-CS197 peptide antiserum raised against unconjugated peptide SEQUENCE ID NO 19
# Experiment: Western blot competition; antiserum pre-incubated overnight with peptide immunogen
binder,measurement,value
B1,concentration of peptide immunogen that inhibited antibody binding to the blot bands,2.5 FM
